Like-named read-outs stand apart in the source and are kept apart here.
Legend:
[1] = target: CXCR1 extracellular loop peptide two linked extracellular loops (Homo sapiens) (UniProt P25024); settings: cited from earlier work
ND-CXCR1(1–38) [2] = target: ND-CXCR1(1–38) (UniProt P25024); test: ITC
[3] = target: 1TM-CXCR1(1–72) reconstituted in nanodiscs (UniProt P25024); test: ITC
ND-CXCR1(1–38) [4] = target: ND-CXCR1(1–38) (UniProt P25024); test: ITC; remark: listed apart in the source

Chain of ND-CXCR1(1–38) (P25024 1-38 C30S): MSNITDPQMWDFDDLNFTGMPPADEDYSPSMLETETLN
Chain of 1TM-CXCR1(1–72) reconstituted in nanodiscs (P25024 1-72 C30S): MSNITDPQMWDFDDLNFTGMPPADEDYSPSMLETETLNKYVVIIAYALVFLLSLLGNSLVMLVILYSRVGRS
Chain of CXCR1 extracellular loop peptide two linked extracellular loops (Homo sapiens) (P25024 whole entry): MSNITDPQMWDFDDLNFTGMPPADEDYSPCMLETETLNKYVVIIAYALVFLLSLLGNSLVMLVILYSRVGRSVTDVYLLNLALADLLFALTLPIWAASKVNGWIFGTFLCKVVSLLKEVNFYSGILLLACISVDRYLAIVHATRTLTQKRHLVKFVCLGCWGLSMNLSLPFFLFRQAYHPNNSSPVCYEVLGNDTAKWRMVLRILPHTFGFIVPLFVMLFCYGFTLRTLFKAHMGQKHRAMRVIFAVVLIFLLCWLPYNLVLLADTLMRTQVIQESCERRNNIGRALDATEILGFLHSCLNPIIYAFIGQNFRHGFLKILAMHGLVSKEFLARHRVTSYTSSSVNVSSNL
Chain of IL-8 (P10145 28-99): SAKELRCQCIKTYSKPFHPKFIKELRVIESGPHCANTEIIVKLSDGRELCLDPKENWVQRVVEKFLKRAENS

| Kd (ND-CXCR1(1–38) [2]) | Kd [3] | dH [3] | Kd (ND-CXCR1(1–38) [4]) | dH (ND-CXCR1(1–38) [4]) | Substance | Kd [1] |
| --- | --- | --- | --- | --- | --- | --- |
|  |  |  |  |  | IL-8 (from UniProt P10145) | 0.5 µM |
| 3.2 µM | 12.5 µM | -3.1 kcal/mol | 3.5 µM | -3.2 kcal/mol | monomeric Interleukin-8 IL-8(1–66) (ligand) |  |
